Measured values: US20220275075A1 (PARACRINE THERAPEUTICS, published 2022)
Where a chain is given by its changes, count along the chain named.

T1: corresponding PDGF-D peptide SVNIREELKC (human)
T1 construct: Synthesised with a C-terminal cysteine; also called alternate peptide
T1 peptide: SVNIREELKC

T2: PDGF-C peptide epitope SVSIREELKC (human)
T2 construct: Synthesised with a C-terminal cysteine for thiol immobilisation on the sensor chip
T2 peptide: SVSIREELKC

T3: RTDTIFWPGC
T3 peptide: RTDTIFWPGC

T4: overlapping PDGF-C peptide EELKRTDTIFC (human)
T4 construct: Synthesised with a C-terminal cysteine for thiol immobilisation
T4 peptide: EELKRTDTIFC

B1: Peptide 3 (SVSIREELKRTDTIFWPGC) (peptide)
peptide: SVSIREELKRTDTIFWPGC
notes: Synthetic peptide; also called PDGFC peptide 3
B2: monoclonal antibody 6B3 (antibody, mouse IgG2a, V domains shown)
VH: QVQLQQSGVEVARPGASVKLSCKASGYTFRSYGITWVRQRTGQGLEWIGEIYPRSGKTYYNEKFKGKATLTADTSSSTVYMELRSLTSEDSAVYFCAREGYGYDGGYFDYWGQGTTLTVSS
VL: DIVMTQSPSSLAMSVGQKVTMSCKSSQSLLNSRNQKNYLAWYQQKPGQSPKLLVYFASTRESGVPDRFTGSGSGTDFTLTISSVQAEDLAVYYCQQHYSTPLTFGAGTKLELKR
notes: The variable domains are identical to those of 19C7; also called mu6B3; murine 6B3
B3: chimeric anti-PDGF-CC antibody 6B3 (ch6B3) (antibody, V domains shown)
VH: B2 VH with R30G
VL: B2 VL
notes: also called chimeric 6B3; mouse-human chimeric antibody 6B3
B4: humanized anti-PDGF-CC antibody 6B3 (hu6B3), heavy chain R30 (antibody, V domains shown)
VH: QVQLVQSGAEVKKPGASVKVSCKASGYTFRSYGITWVRQATGQGLEWMGEIYPRSGKTGYAQKFQGRVTMTADTSTSTVYMELRSLRSEDSAVYFCAREGYGYDGGYFDYWGQGTLVTVSS
VL: DIVMTQSPSSLAMSVGERATINCKSSQSLLNSRNQKNYLAWYQQKPGQPPKLLIYFASTRESGVPDRFSGSGSGTDFTLTISSVQAEDVAVYYCQQHYSTPLTFGGGTKVELKR
notes: Human IgG1 kappa as the final form; also called hu6B3 R; hu6B3 R30
B5: monoclonal antibody 11F5 (antibody, mouse IgG2a, V domains shown)
VH: QVQLQQSGAELARPGASVKLSCKASGYIFISYGISWVKQRTGQGLEWIGEIYPRSGKTYYNEKFKDKAALTADKSSSIAYMELRSLTSEDSAVYFCAREGYGYDGGYFDYWGQGTILTVSS
VL: B2 VL with T20A, M21V, R33S, E61D
notes: Murine IgG2a, kappa light chain
B6: monoclonal antibody 12F5 (antibody, mouse IgG2a, V domains shown)
VH: EVKLEESGGGLVQPGGSRELSCEGSGFTFSGFWMSWVRQTPGKTLEWIGDINSDGSAIIYAPSIKDRFTIFRDNDKSTLYLQMNNVRSEDTATYFCMRWGYYGSNYFDYWGQGTTLTVSS
VL: DVVMTQTPLSLPVSLGDQASISCRSSQSIVHSNGNTYLHWYLQKPGQSPKLLIYRVSNRFSGVPDRFSGSGSGTDFTLKISRVEAEDMGVYYCFQGTHVPFTFGSGTKLEIKR
notes: Murine IgG2a, kappa light chain; also called anti-PDGF-CC mAb 12F5
B7: monoclonal antibody 19C7 (antibody, mouse IgG2a, V domains shown)
VH: B2 VH
VL: B2 VL
notes: as for B5

What was measured:
monoclonal antibody 6B3 = target: B2; assay: Biacore competition: 6B3 (333 nM) with soluble peptide injected over immobilised PDGF-CC core protein, maximum response plotted
Method: Biosensor analyses were performed on a BlAcore 2000 biosensor using a carboxymethyldextran-coated sensor chip (Xantec CMD). The chip was derivatised on channel 2 with the PDGF-CC core antigen (60 μg/mL) using standard amine coupling chemistry (0.05M NHS/0.2M EDC). Channel 1 was derivatised with ethanolamine and used as a blank control channel for correction of refractive index effects.
After the injection phase, the dissociation was monitored by flowing HBS buffer over the chip surface for 360s. Bound antibody was eluted and the chip surface regenerated between samples by injection of 30 μl of 10 mM Glycine pH 2.0

[1] = target: T5, recombinant human PDGF-CC active core domain protein with terminal histidine tag (human, UniProt Q9NRA1 231-345); assay: SPR, BIAcore 2000, His-tagged PDGF-CC on Ni-NTA chip, antibody as analyte, 1:1 Langmuir fit (apparent)
T5 construct: Made in baculovirus-infected Sf9 cells; The position of the tag in the chain is not known; also called RhPC; RhPCc; not shown: terminal histidine tag
T5 sequence (Q9NRA1 231-345 limits assumed): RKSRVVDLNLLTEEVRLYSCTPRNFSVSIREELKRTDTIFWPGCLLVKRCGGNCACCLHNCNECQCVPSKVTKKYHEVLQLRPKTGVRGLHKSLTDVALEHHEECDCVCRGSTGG
Method: Biosensor analyses were performed on a BIAcore 2000 biosensor using an NTA sensor chip. Briefly, a NTA sensor chip was loaded with Ni 2+ and used to immobilize histidine tagged PDGF-CC ligand. The PDGF-CC antibodies were passed over the chip at varying concentrations in order to determine apparent affinity (KD). Chips were regenerated with EGTA. The chip was re-equilibrated by washing with HBS (containing no EDTA) before further analyses. Using BIAevaluation software, a 1:1 Langmuir binding analysis model was used to estimate the apparent association (ka) and disassociation (kd) rate constants for each set of antibody experiments.

[2] = target: B1; assay: SPR, 6B3 (20.8 nM-667 nM) over thiol-immobilised peptide 3
Method: Peptide 3 was immobilized on channel 4 of the carboxymethyldextran-coated sensor chip using thiol chemistry. Briefly, the chip was activated on channel 4 using standard amine coupling chemistry (0.05M NHS/0.2M EDC) followed by 80 mM (2-(2-pyridinyldithio)ethane amine (PDEA) in 1M borate PH 8.2. Peptide 3 (100 nM in 10 mM sodium acetate pH 4.5) was conjugated via its C-terminal cysteine to PDEA. The chip was then blocked using 40 mM L-cysteine in 10 mM sodium acetate pH 4.0 and 1 M ethanolamine pH 8.2. A blank derivatised channel was used as the control channel.
Samples of antibody 6B3 (20.8 nM-667 nM) were injected (30 μL at 10 μL/min) in HBS buffer over immobilized peptide 3. Specific binding was observed as compared to the blank channel and then investigated further with smaller overlapping peptide sequences (data not shown).

[3] = target: T6, mouse PDGF-C core protein (mouse, UniProt Q8CI19 231-345, limits assumed); assay: immunoblot of COS-1 supernatant with mouse PDGF-C core, probed with purified antibody
T6 construct: also called COSmPCcoremedia
T6 sequence (Q8CI19 231-345 limits assumed): as the sequence (Q9NRA1 231-345 limits assumed) above, with R1K, R4K, D7N, T12K, R16K, S69R, R88K, S112N, T113A counted along it
Method: To produce the mouse PDGF-CC protein, COS-1 cells were transfected with mouse PDGF-C core plasmid constructed in expression vector pCDNA3.1 (Invitrogen). Transfection using lipofectamine plus reagent (Invitrogen) was performed according to the manufacturer's instructions. Transfected cells were cultured in serum free media. At 24 hours post-transfection, culture supernatant (COSmPCcoremedia) was collected and 30 μl sample was loaded on SDS-PAGE together with human PDGF-C core protein (0.1 μg RhPcc) and proteins separated by SDS-PAGE. Protein was then isolated using standard means.

[4] = target: T7, recombinant human PDGF-DD (human, UniProt Q9GZP0 250-370, limits assumed); assay: ELISA, PDGF ligands coated at 1 µg/ml, purified mAb at 1.5 µg/ml
T7 construct: The construct is not described; also called PDGF-D polypeptide; PDGF-DD (R&D)
T7 sequence (Q9GZP0 250-370 limits assumed): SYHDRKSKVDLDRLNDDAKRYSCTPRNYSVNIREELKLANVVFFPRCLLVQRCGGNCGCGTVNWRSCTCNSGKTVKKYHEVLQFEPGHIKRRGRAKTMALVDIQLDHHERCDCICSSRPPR
Method: (§1) Following immunisation of mice and splenic fusions by standard procedures, the supernatant of 16 hybridomas were initially assessed for PDGF-CC binding specificity by ELISA and Western analysis. A sensitive ELISA assay was employed to explore this using commercially available PDGF-AA, PDGF-BB, PDGF-DD and recombinant PDGF-CC. Specifically, antigen immobilization of purified recombinant human PDGF ligands, PDGF-AA, BB, CC and DD diluted in 100 mM NaHCO₃ at the concentration of 1μg/ml, was performed overnight at +4° C. Thereafter, all incubations were done at room temperature 1.5-2 hours and washes carried out with PBS. In triplicate, hybridoma supernatants were applied at a dilution of 1:2 in PBS/1% bovine serum albumin (BSA), or purified monoclonal antibody (mAbs) was added (1.5μg/ml in 3% BSA). A rabbit polyclonal IgG—purified antibody was used as positive control (4 μg/ml). Binding was detected with an anti—mouse (or anti—rabbit in control) alkaline phosphatase—conjugated secondary antibody and visualized by incubation with alkaline phosphatase yellow (pNPP) liquid substrate system for ELISA (Sigma—Aldrich). Absorbance was read at 405 nm.

[5] = target: T8, recombinant human PDGF-BB (human, UniProt P01127 82-190); assay: as above
T8 construct: Bought; The construct is not described; also called PB
T8 sequence (P01127 82-190): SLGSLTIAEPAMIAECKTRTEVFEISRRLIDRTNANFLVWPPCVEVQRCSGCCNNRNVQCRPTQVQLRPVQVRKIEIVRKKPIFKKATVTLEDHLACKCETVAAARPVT
Method: as §1

[6] = target: T9, recombinant human PDGF-AA (human, UniProt P04085 87-211); assay: as above
T9 construct: Bought; The construct is not described
Method: as §1

[7] = target: T1, corresponding PDGF-D peptide SVNIREELKC; assay: Biacore, 6B3 over thiol-immobilised peptide
Method: Samples of 6B3 antibody (1.334 μM) was injected (30 μL at 10 μL/min) in HBS buffer over the immobilized peptides.

[8] = target: T2, PDGF-C peptide epitope SVSIREELKC; assay: Biacore, 6B3 at 20.8 nM-667 nM over thiol-immobilised peptide
RTDTIFWPGC = target: T3, RTDTIFWPGC; assay: as above
[9] = target: T4, overlapping PDGF-C peptide EELKRTDTIFC; assay: as above
[10] = target: T7, recombinant human PDGF-DD; assay: ELISA on coated PDGF-AA, -BB, -CC, -DD and BSA
[11] = target: T8, recombinant human PDGF-BB; assay: ELISA on coated PDGF-AA, -BB, -CC, -DD and BSA
[12] = target: T9, recombinant human PDGF-AA; assay: ELISA on coated PDGF-AA, -BB, -CC, -DD and BSA
[13] = target: T5, recombinant human PDGF-CC active core …; assay: ELISA on coated PDGF-AA, -BB, -CC, -DD and BSA
[14] = target: T7, recombinant human PDGF-DD; assay: immunoblot of recombinant PDGF-D after SDS-PAGE, probed with hybridoma supernatant, exposure 10 seconds

B1: binds (monoclonal antibody 6B3).

Binder B2 has a Kd [1] of 0.9 nM, a koff [1] of 0.0015 s⁻¹ and a kon [1] of 1.8e+06 M⁻¹ s⁻¹. B2: binds [2]; no binding [3]; no binding (tested: 1.5 µg/ml) [4]. B2: no binding (tested: 1.5 µg/ml) [5]; no binding (tested: 1.5 µg/ml) [6]; no binding (tested: 1.334 µM (legend; paragraph 184 says 667 nM)) [7]. B2: binds [8]; binds (RTDTIFWPGC); no binding (tested: 667 nM) [9].

With B3 the Kd [1] was 0.7 nM, the koff [1] was 0.00041 s⁻¹ and the kon [1] was 600000 M⁻¹ s⁻¹. B3: no binding [10]; no binding [11]; no binding [12].

B4: no binding [10]; no binding [11]; binds [13]. B4: no binding [12].

For B5, the Kd [1] was 1.05 nM, the koff [1] was 0.00058 s⁻¹ and the kon [1] was 640000 M⁻¹ s⁻¹. B5: no binding [14]; no binding (tested: 1.5 µg/ml) [5]; no binding (tested: 1.5 µg/ml) [6].

B6 showed a Kd [1] of 2.2 nM, a koff [1] of 0.0002 s⁻¹ and a kon [1] of 90000 M⁻¹ s⁻¹. B6: no binding (tested: 1.5 µg/ml) [4]; no binding (tested: 1.5 µg/ml) [5]; no binding (tested: 1.5 µg/ml) [6].

In the case of B7, the Kd [1] is reported as 0.7 nM, the koff [1] is reported as 0.0016 s⁻¹ and the kon [1] is reported as 2.2e+06 M⁻¹ s⁻¹. B7: no binding (tested: 1.5 µg/ml) [4]; no binding (tested: 1.5 µg/ml) [5]; no binding (tested: 1.5 µg/ml) [6].
